Source: patent publication US20070014736A1, “Methods of delivering corticotroph-derived glycoprotein hormone” (priority 2005, published 2007)

System: lipolysis in mice
Test: Stimulation of lipolysis in vivo, serum glycerol and FFA
Settings: fasted mice, IP; CGH 300 μg/kg, CL 1 mg/kg
Protocol: CGH, the β3-adrenoreceptor agonist CL 316,243 (CL), and saline vehicle were examined for stimulation of lipolysis in mice following an overnight fast. […] Lipolysis was assessed as the percent change in serum glycerol or FFA over the 2 hour period. The serum glycerol and FFA for the vehicle groups decreased by 7%±9% and 24%±15%, respectively. The serum glycerol for the CGH group increased by 57%±20%; p=0.0254, and the FFA levels increased 25%±5%; p=0.0188.
C57 BL/6 male mice, age 19 weeks, were grouped to normalize weight (n=4 for each treatment; average group weight=37.8 g±0.4 g). Mice were housed individually for 18 hours prior to treatment, at which time food was withdrawn, with free access to water given. At approximately 8 a.m., the subjects were anesthetized with halothane and blood samples taken by retro-orbital eye bleed. The blood was allowed to clot, and the serum was separated by centrifugation and frozen for later analysis. Test substances were administered by IP injection in a volume of 0.1 ml, and the animals replaced in their cages for 2 hours with free access to water. At 2 hours, the mice were sacrificed and blood drawn by cardiac puncture.
For measuring free fatty acids in serum, the method previously described for measuring free fatty acids in conditioned media was followed, with the following modifications. Wako reagents A and B were reconstituted to 2× the recommended concentration. 75 μl of Wako reagent A were added to 5 μl of oleic acid standard plus 5 μl of water. 75 μl of Wako reagent A were added to 5 μl of serum plus 5 μl of methanol (to mirror the oleic acid standard conditions). The 96-well plates were incubated at 37° C. for 10 minutes. 150 μl of Wako reagent B were added to each well. The 96-well plates were incubated at 37° C. for 10 minutes. The 96-well plates were allowed to sit at room temperature for 5 minutes. The 96-well plates were centrifuged in a Beckman Coulter Allegra 6R centrifuge at 3250×g for 5 minutes to remove air bubbles. The absorbance at 530 nm was measured on the Wallac Victor2 Multilabel counter.
For measuring glycerol in serum, the method previously described for measuring glycerol in conditioned media was followed, with the modifications described below.
Sigma reagent A was reconstituted to 0.5× the recommended concentration. 200 μl of Sigma reagent A were added to 10 μl of glycerol standard. 200 μl of Sigma reagent A were added to 5 μl of serum plus 5 μI of water. The 96-well plates were incubated for 15 minutes at room temperature. The 96-well plates were centrifuged in a Beckman Coulter Allegra 6R centrifuge at 3250×g for 5 minutes to remove air bubbles. The absorbance at 530 nm was measured on the Wallac Victor2 Multilabel counter.

B1: CGH: heterodimeric protein hormone comprised of alpha subunit GPHA2 and beta subunit GPHB5, recombinantly produced in CHO cells (protein)
chain 1: QEAVIPGCHLHPFNVTVRSDRQGTCQGSHVAQACVGHCESSAFPSRYSVLVASGYRHNITSVSQCCTISGLKKVKVQLQCVGSRREELEIFTARACQCDMCRLSRY
chain 2: ASSGNLRTFVGCAVREFTFLAKKPGCRGLRITTDACWGRCETWEKPILEPPYIEAHHRVCTYNETKQVTVKLPNCAPGVDPFYTYPVAIRCDCGACSTATTECETI
percent change (increase) in serum FFA over 2 hours: 25%±5% | percent change (increase) in serum glycerol over 2 hours: 57%±20%
